Data as given in article PMC2149339.
Values joined by “and” are separate entries in the source; they are usually repeats but may differ in a detail not shown here. Equal values may be shown once.

Columns and labels:
[1] = target: COOH-terminal region of dystrophin construct (C2979) (UniProt P11532); assay: co-IP
[2] = target: COOH-terminal region of utrophin construct (TDRII) (UniProt P46939); assay: co-IP
UniProt P46939, sequence (P46939 2753-3432): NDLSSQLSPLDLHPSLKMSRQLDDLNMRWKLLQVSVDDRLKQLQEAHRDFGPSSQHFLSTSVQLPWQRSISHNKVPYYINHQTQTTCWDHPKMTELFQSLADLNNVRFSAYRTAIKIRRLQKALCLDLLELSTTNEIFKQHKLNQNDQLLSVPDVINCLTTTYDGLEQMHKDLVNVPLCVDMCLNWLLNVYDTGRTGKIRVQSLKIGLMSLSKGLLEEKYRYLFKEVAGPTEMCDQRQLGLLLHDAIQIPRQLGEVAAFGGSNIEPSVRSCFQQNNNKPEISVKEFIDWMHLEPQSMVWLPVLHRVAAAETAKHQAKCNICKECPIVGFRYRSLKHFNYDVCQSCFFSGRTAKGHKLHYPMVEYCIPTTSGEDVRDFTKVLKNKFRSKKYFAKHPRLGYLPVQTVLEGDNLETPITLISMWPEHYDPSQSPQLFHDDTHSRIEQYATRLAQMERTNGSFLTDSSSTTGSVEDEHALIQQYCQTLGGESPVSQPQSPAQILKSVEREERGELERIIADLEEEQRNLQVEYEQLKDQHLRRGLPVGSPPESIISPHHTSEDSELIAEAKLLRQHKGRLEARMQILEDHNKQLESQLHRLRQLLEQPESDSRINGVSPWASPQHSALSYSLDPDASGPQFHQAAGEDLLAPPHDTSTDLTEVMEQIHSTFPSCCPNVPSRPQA

UniProt P11532, sequence (P11532 2980-3685): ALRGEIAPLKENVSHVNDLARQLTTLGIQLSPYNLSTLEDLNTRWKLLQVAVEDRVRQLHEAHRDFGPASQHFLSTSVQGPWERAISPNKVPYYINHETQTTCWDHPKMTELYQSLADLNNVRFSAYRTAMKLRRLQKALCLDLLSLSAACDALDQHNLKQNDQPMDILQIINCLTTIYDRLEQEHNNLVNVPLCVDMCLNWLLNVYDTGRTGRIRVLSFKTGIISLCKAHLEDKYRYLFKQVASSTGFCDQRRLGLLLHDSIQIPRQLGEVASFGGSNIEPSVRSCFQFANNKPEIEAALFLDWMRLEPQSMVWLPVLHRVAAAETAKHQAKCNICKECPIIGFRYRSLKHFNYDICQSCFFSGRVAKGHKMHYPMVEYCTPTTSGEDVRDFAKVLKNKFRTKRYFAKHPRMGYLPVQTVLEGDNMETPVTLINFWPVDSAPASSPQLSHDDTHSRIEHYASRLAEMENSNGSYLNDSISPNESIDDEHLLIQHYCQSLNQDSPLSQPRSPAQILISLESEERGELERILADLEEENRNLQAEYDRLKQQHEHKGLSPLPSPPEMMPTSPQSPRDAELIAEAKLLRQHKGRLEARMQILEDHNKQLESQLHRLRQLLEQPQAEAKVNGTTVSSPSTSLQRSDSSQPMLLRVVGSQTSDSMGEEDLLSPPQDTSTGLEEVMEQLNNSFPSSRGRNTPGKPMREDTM

Row | fold (+Ab over control without antibody) [1] | fold (+Ab over control without antibody) [2] | fold (+Ab over control without antibody), average of five experiments [2] [fold] | fold (+Ab over control without antibody), average of five experiments [1] [fold] | Substance
1 | 3.7 fold and 4.2 fold and 3.3 fold | 1.3 fold and 0.9 fold and 1 fold | 1 | – | α-dystrobrevin-2 construct (exons 1-17B) (natural protein)
2 | – | 3.1 fold and 4 fold and 3 fold | 3.3 | 3 | full-length α-dystrobrevin-1 construct (exons 1-21) (natural protein)
